Tests used:
[1] = target: T1, Gp32-HIS2 (phage vB_EcoM_NBG1); experiment: oligo enriched in phase-separated particles; MgOAc, RPA mix, no crowding agent; details: tags: C-terminal HIS2 IDR (human OTX1); label: FAM
T1 chain: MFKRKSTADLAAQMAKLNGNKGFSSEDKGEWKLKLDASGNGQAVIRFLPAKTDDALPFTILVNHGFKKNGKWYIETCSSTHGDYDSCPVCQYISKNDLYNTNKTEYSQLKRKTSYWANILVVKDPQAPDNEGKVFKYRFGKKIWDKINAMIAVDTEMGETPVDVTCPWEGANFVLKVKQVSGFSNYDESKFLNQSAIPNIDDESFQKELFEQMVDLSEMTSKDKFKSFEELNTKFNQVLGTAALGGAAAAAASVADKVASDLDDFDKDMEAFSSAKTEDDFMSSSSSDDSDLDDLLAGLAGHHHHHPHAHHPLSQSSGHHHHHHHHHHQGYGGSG
Method: (§1) Reactions were set up according to the following protocol. A reaction mixture was created with the following components: 25 mM Tris HCl pH 8.3, 7.5 mM KOAc, 1 mM DTT, 2.5 mM ATP, 20 mM phosphocreatine, 1 μM creatine kinase, 1 mM dNTPs, 0.2 μM forward primer, 0.2 μM reverse primer, 0.516 μM probe, 22.6 μM Gp32-HIS2 fusion, 8.4 μM UvsX, 15.3 μM UvsY, 0.135 μM S. aureus DNA polymerase (large subunit), and 0.27 μM Exonuclease III. Gp32-His2, UvsX, UvsY, polymerase and Exonuclease III were prepared as a premix before being added in one step to the mixture of primer, buffer, nucleotides and creatine kinase. The total volume was 44 Once combined, 6 μl of 280 mM MgOAc was added to the mixture to achieve a final concentration of 33 mM. 10 μl of the reaction mix was then transferred to a C-Chip haemocytometer slide which was placed on a heated stage set to 39° C. before being observed under the microscope where images were taken under bright field light conditions and fluorescence conditions.

[2] = target: T2, Gp32-HRP1 (phage vB_EcoM_NBG1); experiment: as above; details: tags: C-terminal HRP1 IDR (S. cerevisiae Hrp1) and 7xHis; label: FAM
T2 chain: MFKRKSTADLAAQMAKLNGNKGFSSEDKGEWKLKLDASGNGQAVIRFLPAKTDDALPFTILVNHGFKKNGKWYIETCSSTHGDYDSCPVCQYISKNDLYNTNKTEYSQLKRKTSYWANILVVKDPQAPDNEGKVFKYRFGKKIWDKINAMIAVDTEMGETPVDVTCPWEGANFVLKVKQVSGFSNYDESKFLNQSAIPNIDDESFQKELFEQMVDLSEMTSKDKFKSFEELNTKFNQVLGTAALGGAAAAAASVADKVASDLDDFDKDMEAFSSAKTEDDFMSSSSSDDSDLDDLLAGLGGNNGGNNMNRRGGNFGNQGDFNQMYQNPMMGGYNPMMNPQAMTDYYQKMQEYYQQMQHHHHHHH
Method: as §1, with “Gp32-HRP” for “Gp32-HIS2”, “Gp32,” for “Gp32-His2,”

B1: FAM oligo probe (ssDNA)
DNA: CCGCAATGGTGCACTCTCAGTACAATCTGCTCTGATG
[1]
  binding result: binds
[2]
  binding result: binds

From US20220112547, “BIOCHEMICAL REACTION METHODS AND REAGENTS COMPRISING INTRINSICALLY DISORDERED REGIONS” (Biocrucible Limited, published 2022)
